# According to patent US20230203199A1 (published 2023):
# B1: MX846 (bispecific antibody)
# chain 1: not shown
# chain 2: QAVVTQEPSLTVSPGGTVTLTCGSSTGAVTTSNYANWVQEKPGQAFRGLIGGTNKRAPGTPARFSGSLLGGKAALTLSGAQPEDEAEYYCALWYSNLWVFGGGTKLTVLGGSGGDIVMTQTPLSLPVTPGEPASISCRSSKSLLHSNGITYLYWYLQKPGQSPQLLIYQMSNLVSGVPDRFSGSGSGTDFTLKISRVEAEDVGVYYCAQNLELPYTFGGGTKVEIKGSGGSAGSGSGGGGSASGSGQVQLVQSGAEVKKPGSSVKVSCKASGYAFSYSWINWVRQAPGQGLEWMGRIFPGDGDTDYNGKFKGRVTITADKSTSTAYMELSSLRSEDTAVYYCARNVFDGYWLVYWGQGTLVTVSSGGSGGEVQLLESGGGLVQPGGSLRLSCAASGFTFSTYAMNWVRQAPGKGLEWVSRIRSKYNNYATYYADSVKGRFTISRDDSKNTLYLQMNSLRAEDTAVYYCVRHGNFGNSYVSWFAYWGQGTLVTVSSASGGSGDKTHTCPPCPAPEAAGGPSVFLFPPKPKDTLMISRTPEVTCVVVDVSHEDPEVKFNWYVDGVEVHNAKTKPREEQYNSTYRVVSVLTVLHQDWLNGKEYKCKVSNKALAAPIEKTISKAKGQPREPQVCTLPPSRDELTKNQVSLSCAVKGFYPSDIAVEWESNGQPENNYKTTPPVLDSDGSFFLVSKLTVDKSRWQQGNVFSCSVMHEALHNHYTQKSLSLSPG
# Target: T1, hCD20 on transfected Expi293 cells (human, UniProt P11836 1-297)
# T1 construct: whole, on cells
# T1 sequence (looked up): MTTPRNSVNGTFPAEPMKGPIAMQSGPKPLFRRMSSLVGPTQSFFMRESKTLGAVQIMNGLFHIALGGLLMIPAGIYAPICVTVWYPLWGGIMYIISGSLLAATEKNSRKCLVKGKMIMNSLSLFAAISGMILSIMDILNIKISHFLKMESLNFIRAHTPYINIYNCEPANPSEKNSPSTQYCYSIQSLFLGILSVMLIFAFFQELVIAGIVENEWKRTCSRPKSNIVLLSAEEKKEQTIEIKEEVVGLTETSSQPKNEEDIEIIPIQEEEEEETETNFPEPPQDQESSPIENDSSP
# Test: flow cytometry on Expi293 cells transfected with hCD20, anti-human Fc PE detection
binder,measurement,value
B1,binding result,binds
